How the values were obtained:
Human Ang1 = target: T1, Human Ang1 (human, UniProt Q15389 20-498, limits assumed); assay: ForteBio BLI, antibody on AHQ sensor
T1 construct: also called hAng1
T1 sequence (looked up): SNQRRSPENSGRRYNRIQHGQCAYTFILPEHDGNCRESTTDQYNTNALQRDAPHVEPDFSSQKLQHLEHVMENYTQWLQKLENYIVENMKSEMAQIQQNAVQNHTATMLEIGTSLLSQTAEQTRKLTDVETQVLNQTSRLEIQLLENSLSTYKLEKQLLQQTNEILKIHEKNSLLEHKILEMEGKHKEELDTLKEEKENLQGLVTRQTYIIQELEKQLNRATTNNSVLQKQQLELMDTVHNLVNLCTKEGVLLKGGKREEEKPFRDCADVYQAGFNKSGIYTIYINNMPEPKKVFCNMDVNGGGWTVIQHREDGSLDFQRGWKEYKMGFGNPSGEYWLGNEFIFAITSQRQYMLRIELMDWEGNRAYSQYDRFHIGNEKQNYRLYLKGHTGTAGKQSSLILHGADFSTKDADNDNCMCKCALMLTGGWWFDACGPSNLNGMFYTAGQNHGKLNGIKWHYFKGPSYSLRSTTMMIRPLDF
Procedure: The equilibrium dissociation constants (KD) of the above exemplary antibodies of the present invention binding to human Ang2 (h Ang2), cynomolgus monkey Ang2 (cAng2), murine Ang2 (mAng2), and human Ang1 (hAng1) were determined using the biological optical interferometry (ForteBio) assay.
The ForteBio affinity assay was performed according to the existing method (Estep, P et al., High throughput solution-based measurement of antibody-antigen affinity and epitope binning. MAbs, 2013.5 (2): p. 270-8). Briefly, the sensor was equilibrated in the assay buffer off-line for 30 min, followed by on-line detection for 60 s to establish the baseline. Then the purified antibodies obtained as described above were loaded on-line onto an AHQ sensor (ForteBio) for ForteBio affinity assay. The sensors with loaded antibodies were exposed to 100 nM of hAng2, cAng2, mAng2, and hAng1 antigens for 5 min, and then were transferred into the assay buffer for dissociation for 5 min to determine the dissociation rate. Kinetic analysis was performed using a 1:1 binding model.

Rabbit ANG2 = target: T2, Rabbit ANG2 (rabbit, UniProt G1T9B3 19-496); assay: SPR, Biacore T200, antibody captured on Protein G chip, experiment 2
T2 sequence: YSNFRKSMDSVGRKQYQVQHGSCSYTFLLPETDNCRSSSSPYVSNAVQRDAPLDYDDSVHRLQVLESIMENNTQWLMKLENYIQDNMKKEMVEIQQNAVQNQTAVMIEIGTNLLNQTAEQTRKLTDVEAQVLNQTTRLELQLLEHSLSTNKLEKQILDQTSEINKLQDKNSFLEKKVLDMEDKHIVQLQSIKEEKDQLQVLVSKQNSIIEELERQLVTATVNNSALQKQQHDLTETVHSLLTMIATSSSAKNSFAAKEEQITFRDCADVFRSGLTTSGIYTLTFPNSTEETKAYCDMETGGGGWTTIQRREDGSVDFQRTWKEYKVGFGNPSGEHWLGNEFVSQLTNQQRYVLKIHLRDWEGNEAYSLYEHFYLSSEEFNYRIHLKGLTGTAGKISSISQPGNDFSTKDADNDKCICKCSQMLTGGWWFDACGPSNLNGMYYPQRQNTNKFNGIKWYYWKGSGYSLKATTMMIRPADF
Procedure: The antibody was diluted to 1 μg/mL and was captured onto channel 2 for 30 s, and channel 1 was the blank control channel. The gradient-diluted Human ANG2, Rhesus ANG2, Rabbit ANG2, Rat ANG2 and Mouse ANG2 were sequentially injected into channels 1 and 2 of the chip, from low to high concentrations (0-32 nM), at a flow rate of 30 μL/min, with one concentration per cycle, and with 180 s association time and 1200 s dissociation time at 25° C. Finally, the chip was regenerated using Glycine pH 1.5 at 30 μL/min for 30 s. The affinity assay was repeated three times.

[1] = target: T3, recombinant biotinylated hAngiopoietin-2 protein (R&D, Cat. No.: BT623B/CF) (human, UniProt O15123 19-496, limits assumed, biotinylated (sites not given)); assay: blocking ELISA: antibody titrated against biotinylated hAng2 (300 ng/ml final); blocked binding to coated hTie2 protein; Avidin-HRP detection
T3 construct: Bought protein; also called Biotin Ang2; human biotin Ang2 protein
T3 sequence: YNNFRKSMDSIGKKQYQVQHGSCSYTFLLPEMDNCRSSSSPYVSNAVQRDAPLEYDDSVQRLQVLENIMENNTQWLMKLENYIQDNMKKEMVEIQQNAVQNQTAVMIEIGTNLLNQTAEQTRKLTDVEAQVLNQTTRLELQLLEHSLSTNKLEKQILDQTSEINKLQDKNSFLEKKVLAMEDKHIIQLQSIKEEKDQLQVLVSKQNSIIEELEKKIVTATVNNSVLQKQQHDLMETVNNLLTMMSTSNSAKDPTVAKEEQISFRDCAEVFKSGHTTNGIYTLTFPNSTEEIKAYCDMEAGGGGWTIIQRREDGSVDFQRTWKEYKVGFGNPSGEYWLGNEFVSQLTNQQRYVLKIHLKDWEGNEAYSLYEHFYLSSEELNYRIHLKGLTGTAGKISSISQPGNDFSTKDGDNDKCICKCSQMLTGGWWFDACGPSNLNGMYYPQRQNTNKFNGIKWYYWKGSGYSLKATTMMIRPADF
Procedure: The abilities of 81H10, 86E9, 107H7, hz81H10.4, Amhz81H10.4.30, Amhz81H10.4.49, and the control antibodies Nesvacumab and faricimab to block the binding of human Ang2 to hTie2 were determined by ELISA. Faricimab is a bispecific antibody drug undergoing a clinical trial and developed by Roche, which targets both angiopoietin-2 (Ang-2) and VEGF-A.
Then the plate was blocked using 5% BSA for 1 h. The biotinylated antigen, recombinant biotinylated hAngiopoietin-2 protein (R&D, Cat. No.: BT623B/CF), was diluted to 600 ng/ml, and was added into the microtiter plate at 50 μl/well. The antibodies (81H10, 86E9, 107H7, hz81H10.4, Amhz81H10.4.30 and Amhz81H10.4.49) prepared as described above were gradiently diluted with a total of 8 or 12 dilution points starting from the highest concentration, and then added to the microtiter plate at 50 μl/well, and incubated in PBS on ice for 30 min. Then, 50 ul of antigen solution was added to the microtiter plate, in which the final antigen concentration was 300 ng/ml. The plate containing the antigen-antibody mixture was incubated for 90 min. After three washes with PBS, the supernatant was discarded, and Avidin-HRP (Invitrogen) diluted at 1:10000 was added at 100 μl/well, then incubated at room temperature for 30 min. PBS was used to wash the plate six times. Then TMB chromogen solution (solarbio) was added at 100 ul/well to allow for chromogenic reaction for 1 min, then the reaction was terminated with the addition of stop solution (solarbio) at 100 ul/well.

B1: humanized antibody hz81H10.4 (antibody, human IgG1, kappa, V domains shown)
VH: EVQLVESGGGLVKPGGSLRLSCAASGFTFSNYWMNWVRQAPGKGLEWVAEIRLKSNNYATHYAESVKGRFTISRDVSKNTVYLQMNSLKTEDTAVYYCTDTAPFAYWGQGTLVTVSS
VL: DIQMTQSPSSLSASVGDRVTITCKASQDVGTDVAWYQQKPGKAPKLLIYWASTRHTGVPSRFSGSGSGTDFTLTISSLQPEDFATYYCQQYSSYPLTFGGGTKVEIKR
notes: also called IBI335
In the case of B1, the binding result (Human Ang1) is reported as “no binding (tested: 100 nM)”, the Kd (Rabbit ANG2) is reported as 0.477 nM and the koff (Rabbit ANG2) is reported as 0.000152 s⁻¹. The kon (Rabbit ANG2) was 318000 M⁻¹ s⁻¹ and the IC50 [1] was 0.728 nM.

Source: US20240239881A1 (Innovent, published 2024)
